Experimental data published in the Human Domainome abundance scans (Beltran et al. 2025).
± gives the uncertainty stated by the source.

B1: SWI/SNF-related matrix-associated actin-dependent regulator of chromatin subfamily B member 1, residues 181 to 248; numbered along this chain, Q12824 (parent)
chain: SQPEVLVPIRLDMEIDGQKLRDAFTWNMNEKLMTPEMFSEILCDDLDLNPLTFVPAIASAIRQQIESY

Variants of: B1
Experiment: abundance fitness (aPCA) (normalised: wild type 0, dead -1); higher = more abundant; growth selection in yeast, the domain comes from the species named
Conditions: Homo sapiens

Q: For SQPEVLVPIRLDMEIDGQKLRDAFTWNMNEQLMTPEMFSEILCDDLDLNPLTFVPAIASAIRQQIESY, which abundance fitness is on record?
A: -0.085 ± 0.07

Q: For SQPEVLVPIRLDMEIDGQKLRDAFTWSMNEKLMTPEMFSEILCDDLDLNPLTFVPAIASAIRQQIESY, which abundance fitness is on record?
A: -0.582 ± 0.31

Q: For SQPEVLVPIRLDMEIDGQKLRDAFTWTMNEKLMTPEMFSEILCDDLDLNPLTFVPAIASAIRQQIESY, which abundance fitness is on record?
A: -0.552 ± 0.3

Q: With SQPEVLVPIRLDMEIDGQKLRDAFTWRMNEKLMTPEMFSEILCDDLDLNPLTFVPAIASAIRQQIESY as the variant, how does the abundance fitness read?
A: -0.684 ± 0.14

Q: For SQPEVLVPIRLDMEIDGQKLRDAFTWWMNEKLMTPEMFSEILCDDLDLNPLTFVPAIASAIRQQIESY, which abundance fitness is on record?
A: -0.909 ± 0.25

Q: With SQPEVLVPIRLDMEIDGQKLRDAFTWYMNEKLMTPEMFSEILCDDLDLNPLTFVPAIASAIRQQIESY as the variant, how does the abundance fitness read?
A: -0.831 ± 0.28

Q: Which abundance fitness does the source give for SQPEVLVPIRLDMEIDGQKLRDAFTWNMNEKLMQPEMFSEILCDDLDLNPLTFVPAIASAIRQQIESY here?
A: -0.881 ± 0.39

Q: Which abundance fitness does the source give for SQPEVLVPIRLDMEIDGQKLRDAFTWNMNEKLMVPEMFSEILCDDLDLNPLTFVPAIASAIRQQIESY here?
A: -0.35 ± 0.15

Q: With SQPEVLVPIRLDMEIDGQKLRDAFTWNMNEKLMPPEMFSEILCDDLDLNPLTFVPAIASAIRQQIESY as the variant, how does the abundance fitness read?
A: -0.454 ± 0.38

Q: For SQPEVLVPIRLDMEIDGQKLRDAFTWNMNEKLMEPEMFSEILCDDLDLNPLTFVPAIASAIRQQIESY, which abundance fitness is on record?
A: -0.388 ± 0.49

Q: For SQPEVLVPIRLDMEIDGQKLRDAFTWNMNEKLMCPEMFSEILCDDLDLNPLTFVPAIASAIRQQIESY, which abundance fitness is on record?
A: -0.831 ± 0.23

Q: Which abundance fitness does the source give for SQPEVLVPIRLDMEIDGQKLRDAFTWNMNEKLMGPEMFSEILCDDLDLNPLTFVPAIASAIRQQIESY here?
A: -0.686 ± 0.25

Q: With SQPEVLVPIRLDMEIDGQKLRDAFTWNMNEKLMRPEMFSEILCDDLDLNPLTFVPAIASAIRQQIESY as the variant, how does the abundance fitness read?
A: -0.876 ± 0.17

Q: With SQPEVLVPIRLDMEIDGQKLRDAFTWNMNEKLMIPEMFSEILCDDLDLNPLTFVPAIASAIRQQIESY as the variant, how does the abundance fitness read?
A: -0.848 ± 0.39

Q: With SQPEVLVPIRLDMEIDGQKLRDAFTWNMNEKLMSPEMFSEILCDDLDLNPLTFVPAIASAIRQQIESY as the variant, how does the abundance fitness read?
A: -0.205 ± 0.073

Q: With SQPEVLVPIRLDMEIDGQKLRDAFTWNMNEKLMWPEMFSEILCDDLDLNPLTFVPAIASAIRQQIESY as the variant, how does the abundance fitness read?
A: -0.615 ± 0.41

Q: Which abundance fitness does the source give for SQPEVLVPIRLDMEIDGQKLRDAFTWNMNEKLSTPEMFSEILCDDLDLNPLTFVPAIASAIRQQIESY here?
A: -0.743 ± 0.14

Q: For SQPEVLVPIRLDMEIDGQKLRDAFTWNMNEKLPTPEMFSEILCDDLDLNPLTFVPAIASAIRQQIESY, which abundance fitness is on record?
A: -0.113 ± 0.15

Q: For SQPEVLVPIRLDMEIDGQKLRDAFTWNMNEKLFTPEMFSEILCDDLDLNPLTFVPAIASAIRQQIESY, which abundance fitness is on record?
A: -0.542 ± 0.26

Q: Which abundance fitness does the source give for SQPEVLVPIRLDMEIDGQKLRDAFTWNMNEKLQTPEMFSEILCDDLDLNPLTFVPAIASAIRQQIESY here?
A: -0.191 ± 0.076

Q: With SQPEVLVPIRLDMEIDGQKLRDAFTWNMNEKLVTPEMFSEILCDDLDLNPLTFVPAIASAIRQQIESY as the variant, how does the abundance fitness read?
A: -0.248 ± 0.052

Q: Which abundance fitness does the source give for SQPEVLVPIRLDMEIDGQKLRDAFTWNMNEKLKTPEMFSEILCDDLDLNPLTFVPAIASAIRQQIESY here?
A: -0.325 ± 0.091

Q: For SQPEVLVPIRLDMEIDGQKLRDAFTWNMNEKLYTPEMFSEILCDDLDLNPLTFVPAIASAIRQQIESY, which abundance fitness is on record?
A: -0.421 ± 0.17

Q: For SQPEVLVPIRLDMEIDGQKLRDAFTWNMNEKLATPEMFSEILCDDLDLNPLTFVPAIASAIRQQIESY, which abundance fitness is on record?
A: -0.563 ± 0.091

Q: Which abundance fitness does the source give for SQPEVLVPIRLDMEIDGQKLRDAFTWNMNEKLHTPEMFSEILCDDLDLNPLTFVPAIASAIRQQIESY here?
A: -0.293 ± 0.12

Q: Which abundance fitness does the source give for SQPEVLVPIRLDMEIDGQKLRDAFTWNMNEKLETPEMFSEILCDDLDLNPLTFVPAIASAIRQQIESY here?
A: -0.794 ± 0.15

Q: For SQPEVLVPIRLDMEIDGQKLRDAFTWNMNEKLITPEMFSEILCDDLDLNPLTFVPAIASAIRQQIESY, which abundance fitness is on record?
A: -0.104 ± 0.12

Q: Which abundance fitness does the source give for SQPEVLVPIRLDMEIDGQKLRDAFTWNMNEKLTTPEMFSEILCDDLDLNPLTFVPAIASAIRQQIESY here?
A: -0.279 ± 0.21

Q: For SQPEVLVPIRLDMEIDGQKLRDAFTWNMNEKLGTPEMFSEILCDDLDLNPLTFVPAIASAIRQQIESY, which abundance fitness is on record?
A: -0.797 ± 0.1

Q: With SQPEVLVPIRLDMEIDGQKLRDAFTWNMNEKLWTPEMFSEILCDDLDLNPLTFVPAIASAIRQQIESY as the variant, how does the abundance fitness read?
A: -0.488 ± 0.068

Q: For SQPEVLVPIRLDMEIDGQKLRDAFTWNMNEKLLTPEMFSEILCDDLDLNPLTFVPAIASAIRQQIESY, which abundance fitness is on record?
A: 0.01 ± 0.039

Q: For SQPEVLVPIRLDMEIDGQKLRDAFTWNMNEKLRTPEMFSEILCDDLDLNPLTFVPAIASAIRQQIESY, which abundance fitness is on record?
A: -0.418 ± 0.046

Q: For SQPEVLVPIRLDMEIDGQKLRDAFTWNMNEKLMTPEMLSEILCDDLDLNPLTFVPAIASAIRQQIESY, which abundance fitness is on record?
A: -0.284 ± 0.17

Q: For SQPEVLVPIRLDMEIDGQKLRDAFTWNMNEKLMTPEMKSEILCDDLDLNPLTFVPAIASAIRQQIESY, which abundance fitness is on record?
A: 0.132 ± 0.38

Q: With SQPEVLVPIRLDMEIDGQKLRDAFTWNMNEKLMTPEMMSEILCDDLDLNPLTFVPAIASAIRQQIESY as the variant, how does the abundance fitness read?
A: -0.637 ± 0.48

Q: For SQPEVLVPIRLDMEIDGQKLRDAFTWNMNEKLMTPEMCSEILCDDLDLNPLTFVPAIASAIRQQIESY, which abundance fitness is on record?
A: -0.675 ± 0.24

Q: With SQPEVLVPIRLDMEIDGQKLRDAFTWNLNEKLMTPEMFSEILCDDLDLNPLTFVPAIASAIRQQIESY as the variant, how does the abundance fitness read?
A: 0.087 ± 0.16

Q: Which abundance fitness does the source give for SQPEVLVPIRLDMEIDGQKLRDAFTWNPNEKLMTPEMFSEILCDDLDLNPLTFVPAIASAIRQQIESY here?
A: -0.5 ± 0.21

Q: Which abundance fitness does the source give for SQPEVLVPIRLDMEIDGQKLRDAFTWNVNEKLMTPEMFSEILCDDLDLNPLTFVPAIASAIRQQIESY here?
A: -0.086 ± 0.14

Q: Which abundance fitness does the source give for SQPEVLVPIRLDMEIDGQKLRDAFTWNTNEKLMTPEMFSEILCDDLDLNPLTFVPAIASAIRQQIESY here?
A: -0.277 ± 0.24
